This note sets out measurements from US20240124857A1, “COMPOSITION FOR GUT HEALTH” (DUPONT NUTRITION BIOSCIENCES APS, priority 2021, published 2024).

A short description of this data set: Relative activity on ATP of CRC22110 single-site variants. In kind it is biochemical. The note with it: in comparison to CRC22110 wild type.

B1: CRC22110v8: single-site variant F205A of CRC22110 (SEQ ID NO: 9) (protein, listed as Gallaecimonas xiamenensis)
chain: ADKPACRAVFDAGSSGTRLFLYVQQEGGWQPWPGAKLGALADPVRQHQGPKAMAALAADLANSLEALRQDGPTNSEGQPRWQGFDWQQACRLQSVSVLATAGMRLAEQQDPVASVALWQEVQQALAGLLGPAVAIDARTLTGFEEGFYAWLAARARLGRSDMGIVEMGGASSQVAFPCPACDRADDAVQQVRLEGQTLDFYSYSALGLGQDEAPKVLGVPHACRYGAGVKDPNWQLGQCQAQLPLTLGRALKDPYNFQGQGQGGYRQVPTEKAGVKDWLLTGAFQYNTPDQLDSCCLNQGQCYQPSTACFRVAYLPLYLDSLGVDPHSPDLDVSWTLGAVLCRNEQCLAPSKPPCRWRKAGCLAPSVGDGRPEGRPGQQPGGVQHRQH
In the case of B1, the “Relative activity (%) on ATP” value was 68%.

B2: CRC22110v10: single-site variant L206I of CRC22110 (SEQ ID NO: 9) (protein, listed as Gallaecimonas xiamenensis)
chain: ADKPACRAVFDAGSSGTRLFLYVQQEGGWQPWPGAKLGALADPVRQHQGPKAMAALAADLANSLEALRQDGPTNSEGQPRWQGFDWQQACRLQSVSVLATAGMRLAEQQDPVASVALWQEVQQALAGLLGPAVAIDARTLTGFEEGFYAWLAARARLGRSDMGIVEMGGASSQVAFPCPACDRADDAVQQVRLEGQTLDFYSYSFIGLGQDEAPKVLGVPHACRYGAGVKDPNWQLGQCQAQLPLTLGRALKDPYNFQGQGQGGYRQVPTEKAGVKDWLLTGAFQYNTPDQLDSCCLNQGQCYQPSTACFRVAYLPLYLDSLGVDPHSPDLDVSWTLGAVLCRNEQCLAPSKPPCRWRKAGCLAPSVGDGRPEGRPGQQPGGVQHRQH
For the molecule B2, the “Relative activity (%) on ATP” value is given as 16%.

B3: CRC22110v7: single-site variant S204T of CRC22110 (SEQ ID NO: 9) (protein, listed as Gallaecimonas xiamenensis)
chain: ADKPACRAVFDAGSSGTRLFLYVQQEGGWQPWPGAKLGALADPVRQHQGPKAMAALAADLANSLEALRQDGPTNSEGQPRWQGFDWQQACRLQSVSVLATAGMRLAEQQDPVASVALWQEVQQALAGLLGPAVAIDARTLTGFEEGFYAWLAARARLGRSDMGIVEMGGASSQVAFPCPACDRADDAVQQVRLEGQTLDFYSYTFLGLGQDEAPKVLGVPHACRYGAGVKDPNWQLGQCQAQLPLTLGRALKDPYNFQGQGQGGYRQVPTEKAGVKDWLLTGAFQYNTPDQLDSCCLNQGQCYQPSTACFRVAYLPLYLDSLGVDPHSPDLDVSWTLGAVLCRNEQCLAPSKPPCRWRKAGCLAPSVGDGRPEGRPGQQPGGVQHRQH
As for B3, the “Relative activity (%) on ATP” value is on record as 53%.

B4: CRC22110v5: single-site variant G209A of CRC22110 (SEQ ID NO: 9) (protein, listed as Gallaecimonas xiamenensis)
chain: ADKPACRAVFDAGSSGTRLFLYVQQEGGWQPWPGAKLGALADPVRQHQGPKAMAALAADLANSLEALRQDGPTNSEGQPRWQGFDWQQACRLQSVSVLATAGMRLAEQQDPVASVALWQEVQQALAGLLGPAVAIDARTLTGFEEGFYAWLAARARLGRSDMGIVEMGGASSQVAFPCPACDRADDAVQQVRLEGQTLDFYSYSFLGLAQDEAPKVLGVPHACRYGAGVKDPNWQLGQCQAQLPLTLGRALKDPYNFQGQGQGGYRQVPTEKAGVKDWLLTGAFQYNTPDQLDSCCLNQGQCYQPSTACFRVAYLPLYLDSLGVDPHSPDLDVSWTLGAVLCRNEQCLAPSKPPCRWRKAGCLAPSVGDGRPEGRPGQQPGGVQHRQH
For B4, the “Relative activity (%) on ATP” value was 16%.

B5: CRC22110v3: single-site variant G207A of CRC22110 (SEQ ID NO: 9) (protein, listed as Gallaecimonas xiamenensis)
chain: ADKPACRAVFDAGSSGTRLFLYVQQEGGWQPWPGAKLGALADPVRQHQGPKAMAALAADLANSLEALRQDGPTNSEGQPRWQGFDWQQACRLQSVSVLATAGMRLAEQQDPVASVALWQEVQQALAGLLGPAVAIDARTLTGFEEGFYAWLAARARLGRSDMGIVEMGGASSQVAFPCPACDRADDAVQQVRLEGQTLDFYSYSFLALGQDEAPKVLGVPHACRYGAGVKDPNWQLGQCQAQLPLTLGRALKDPYNFQGQGQGGYRQVPTEKAGVKDWLLTGAFQYNTPDQLDSCCLNQGQCYQPSTACFRVAYLPLYLDSLGVDPHSPDLDVSWTLGAVLCRNEQCLAPSKPPCRWRKAGCLAPSVGDGRPEGRPGQQPGGVQHRQH
As to B5, the “Relative activity (%) on ATP” value worked out at 60%.

B6: CRC22110v1: single-site variant S204A of CRC22110 (SEQ ID NO: 9) (protein, listed as Gallaecimonas xiamenensis)
chain: ADKPACRAVFDAGSSGTRLFLYVQQEGGWQPWPGAKLGALADPVRQHQGPKAMAALAADLANSLEALRQDGPTNSEGQPRWQGFDWQQACRLQSVSVLATAGMRLAEQQDPVASVALWQEVQQALAGLLGPAVAIDARTLTGFEEGFYAWLAARARLGRSDMGIVEMGGASSQVAFPCPACDRADDAVQQVRLEGQTLDFYSYAFLGLGQDEAPKVLGVPHACRYGAGVKDPNWQLGQCQAQLPLTLGRALKDPYNFQGQGQGGYRQVPTEKAGVKDWLLTGAFQYNTPDQLDSCCLNQGQCYQPSTACFRVAYLPLYLDSLGVDPHSPDLDVSWTLGAVLCRNEQCLAPSKPPCRWRKAGCLAPSVGDGRPEGRPGQQPGGVQHRQH
Consider B6, for which the “Relative activity (%) on ATP” value amounted to 37%.

B7: CRC22110v2: single-site variant L206A of CRC22110 (SEQ ID NO: 9) (protein, listed as Gallaecimonas xiamenensis)
chain: ADKPACRAVFDAGSSGTRLFLYVQQEGGWQPWPGAKLGALADPVRQHQGPKAMAALAADLANSLEALRQDGPTNSEGQPRWQGFDWQQACRLQSVSVLATAGMRLAEQQDPVASVALWQEVQQALAGLLGPAVAIDARTLTGFEEGFYAWLAARARLGRSDMGIVEMGGASSQVAFPCPACDRADDAVQQVRLEGQTLDFYSYSFAGLGQDEAPKVLGVPHACRYGAGVKDPNWQLGQCQAQLPLTLGRALKDPYNFQGQGQGGYRQVPTEKAGVKDWLLTGAFQYNTPDQLDSCCLNQGQCYQPSTACFRVAYLPLYLDSLGVDPHSPDLDVSWTLGAVLCRNEQCLAPSKPPCRWRKAGCLAPSVGDGRPEGRPGQQPGGVQHRQH
B7: the “Relative activity (%) on ATP” value is given as 60%.

B8: CRC22110v4: single-site variant L208A of CRC22110 (SEQ ID NO: 9) (protein, listed as Gallaecimonas xiamenensis)
chain: ADKPACRAVFDAGSSGTRLFLYVQQEGGWQPWPGAKLGALADPVRQHQGPKAMAALAADLANSLEALRQDGPTNSEGQPRWQGFDWQQACRLQSVSVLATAGMRLAEQQDPVASVALWQEVQQALAGLLGPAVAIDARTLTGFEEGFYAWLAARARLGRSDMGIVEMGGASSQVAFPCPACDRADDAVQQVRLEGQTLDFYSYSFLGAGQDEAPKVLGVPHACRYGAGVKDPNWQLGQCQAQLPLTLGRALKDPYNFQGQGQGGYRQVPTEKAGVKDWLLTGAFQYNTPDQLDSCCLNQGQCYQPSTACFRVAYLPLYLDSLGVDPHSPDLDVSWTLGAVLCRNEQCLAPSKPPCRWRKAGCLAPSVGDGRPEGRPGQQPGGVQHRQH
Turning to B8, the “Relative activity (%) on ATP” value is 74%.

B9: CRC22110v9: single-site variant F205L of CRC22110 (SEQ ID NO: 9) (protein, listed as Gallaecimonas xiamenensis)
chain: ADKPACRAVFDAGSSGTRLFLYVQQEGGWQPWPGAKLGALADPVRQHQGPKAMAALAADLANSLEALRQDGPTNSEGQPRWQGFDWQQACRLQSVSVLATAGMRLAEQQDPVASVALWQEVQQALAGLLGPAVAIDARTLTGFEEGFYAWLAARARLGRSDMGIVEMGGASSQVAFPCPACDRADDAVQQVRLEGQTLDFYSYSLLGLGQDEAPKVLGVPHACRYGAGVKDPNWQLGQCQAQLPLTLGRALKDPYNFQGQGQGGYRQVPTEKAGVKDWLLTGAFQYNTPDQLDSCCLNQGQCYQPSTACFRVAYLPLYLDSLGVDPHSPDLDVSWTLGAVLCRNEQCLAPSKPPCRWRKAGCLAPSVGDGRPEGRPGQQPGGVQHRQH
Consider B9, for which the “Relative activity (%) on ATP” value came to 68%.
